Assay results published in publication PMC12060179.

How the values were obtained:
[1] = time-lapse imaging after sorbitol release, HeLa; settings: glycan lost; control: EGFP-WT-YTHDF1
[2] = FRAP in cells, NaCl or sorbitol stress; settings: glycan lost; control: EGFP-WT-YTHDF1
[3] = luciferase tethering reporter after 1 h sorbitol, HEK293T; settings: glycan lost; control: N-WT-YTHDF1

Row | Protein | other: stress granule disassembly rate [1] | other: stress granule dynamics (FRAP recovery) [2] | other: translation restoration after stress [3]
1 | YTHDF1: EGFP-YTHDF1-Mut (protein) parent chain: MSATSVDTQRTKGQDNKVQNGSLHQKDTVHDNDFEPYLTGQSNQSNSYPSMSDPYLSSYYPPSIGFPYSLNEAPWSTAGDPPIPYLTTYGQLSNGDHHFMHDAVFGQPGGLGNNIYQHRFNFFPENPAFSAWGTSGSQGQQTQSSAYGSSYTYPPSSLGGTVVDGQPGFHSDTLSKAPGMNSLEQGMVGLKIGDVSSSAVKTVGSVVSSVALTGVLSGNGGTNVNMPVSKPTSWAAIASKPAKPQPKMKTKSGPVMGGGLPPPPIKHNMDIGTWDNKGPVPKAPVPQQAPSPQAAPQPQQVAQPLPAQPPALAQPQYQSPQQPPQTRWVAPRNRNAAFGQSGGAGSDSNSPGNVQPNSAPSVESHPVLEKLKAAHSYNPKEFEWNLKSGRVFIIKSYSEDDIHRSIKYSIWCSTEHGNKRLDSAFRCMSSKGPVYLLFSVNGSGHFCGVAEMKSPVDYGTSAGVWSQDKWKGKFDVQWIFVKDVPNNQLRHIRLENNDNKPVTNSRDTQEVPLEKAKQVLKIISSYKHTTSIFDDFAHYEKRQEEEEVVRKERQSRNKQ | decreases | decreases | 
2 | YTHDF1: N-YTHDF1-Mut (protein) parent chain: MSATSVDTQRTKGQDNKVQNGSLHQKDTVHDNDFEPYLTGQSNQSNSYPSMSDPYLSSYYPPSIGFPYSLNEAPWSTAGDPPIPYLTTYGQLSNGDHHFMHDAVFGQPGGLGNNIYQHRFNFFPENPAFSAWGTSGSQGQQTQSSAYGSSYTYPPSSLGGTVVDGQPGFHSDTLSKAPGMNSLEQGMVGLKIGDVSSSAVKTVGSVVSSVALTGVLSGNGGTNVNMPVSKPTSWAAIASKPAKPQPKMKTKSGPVMGGGLPPPPIKHNMDIGTWDNKGPVPKAPVPQQAPSPQAAPQPQQVAQPLPAQPPALAQPQYQSPQQPPQTRWVAPRNRNAAFGQSGGAGSDSNSPGNVQPNSAPSVESHPVLEKLKAAHSYNPKEFEWNLKSGRVFIIKSYSEDDIHRSIKYSIWCSTEHGNKRLDSAFRCMSSKGPVYLLFSVNGSGHFCGVAEMKSPVDYGTSAGVWSQDKWKGKFDVQWIFVKDVPNNQLRHIRLENNDNKPVTNSRDTQEVPLEKAKQVLKIISSYKHTTSIFDDFAHYEKRQEEEEVVRKERQSRNKQ |  |  | decreases
